Laboratory results reported in patent US20180201672A1 (ACADEMIA SINICA, published 2018).

B1: chimeric monoclonal anti-IL-17RB antibody cD9 (antibody, V domains shown)
VH: EVQLQQSGPELVKPGASVKISCKTSGYTFTEYTIHWVKQNHGKSLDWIGGINPNNGGTTYNQEFKGKATLTVDKSSSTAYMEFRSLTSEDSAVYYCARSYYGYVDYWGQGTTLTAA
VL: QIVLTQSPAIMSASPGEKVTMTCSASSSIYYIHWYQQKSGTSPKRWIYDTSKLASGVPARFSGSGSGTSYSLTISSMEAEDAATYYCQQWSSNPFTFGSGTKLEIK
notes: also called chimeric D9 antibody; mAb cD9
B2: mouse monoclonal anti-IL-17RB antibody D9 (antibody, V domains shown)
VH: B1 VH
VL: B1 VL
notes: Mouse monoclonal antibody from a hybridoma, raised against recombinant IL-17RB extracellular domain (amino acids 18-289) made in HEK293 cells; also called mAb D9; mAbD9

Biological target: T1, interleukin-17 receptor B (IL-17RB), human, endogenous or ectopic full-length on cells (human, UniProt Q9NRM6 18-502)
T1 construct: In the assays the protein stood on human cancer cell lines or tissue sections; also called native IL-17RB; endogenous IL-17RB
T1 sequence: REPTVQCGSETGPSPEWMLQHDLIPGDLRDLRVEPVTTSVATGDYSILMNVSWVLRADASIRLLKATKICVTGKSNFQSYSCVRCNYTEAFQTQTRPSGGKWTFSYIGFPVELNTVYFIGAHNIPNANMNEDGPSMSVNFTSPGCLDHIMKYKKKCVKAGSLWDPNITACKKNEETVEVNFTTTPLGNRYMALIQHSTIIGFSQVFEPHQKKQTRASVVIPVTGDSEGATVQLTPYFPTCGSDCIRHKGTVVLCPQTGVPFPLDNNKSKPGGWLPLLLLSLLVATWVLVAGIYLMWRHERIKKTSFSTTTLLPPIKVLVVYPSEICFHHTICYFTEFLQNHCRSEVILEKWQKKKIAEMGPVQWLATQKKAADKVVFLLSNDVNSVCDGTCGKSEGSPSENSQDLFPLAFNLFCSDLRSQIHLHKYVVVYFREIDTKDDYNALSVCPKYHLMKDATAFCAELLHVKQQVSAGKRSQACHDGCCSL
Assay: FACS on IL-17RB expressing pancreatic cancer cell lines (CFPAC-1 WT and KO, HPAF-II; MCF10A negative control)
Protocol: FIG. 9. Specificity and Binding Efficiency of anti-IL17RB chimeric D9 antibody (cD9). A, the specific recognition of mouse and chimeric D9 antibody to IL-17RB was determined by FACS analysis using IL-17RB expression (WT) and IL-17RB knock-out (KO) pancreatic cancer cell line CFPAC-1. The FACS profiling of no antibody (no staining) or secondary antibody only (2nd Ab only) were served as control. B, the recognition efficiency of mouse and chimeric D9 antibody was measured by FACS analysis using IL-17RB expression pancreatic cancer cell lines, CFPAC-1 and HPAF-II. MCF10A with no IL-17RB expression was served as negative control.

| Binder | binding result |
| --- | --- |
| B1 | binds |
| B2 | binds |
